Laboratory results: patent US20250127918A1, “SITE-SELECTIVE CONJUGATION OF A PHARMACEUTICAL AGENT TO AN ANTIBODY USING AN AFFINITY PEPTIDE” (priority 2023, published 2025)

Key:
[1] = Whole-body biodistribution of [89Zr]Zr-labelled affinity peptides after subcutaneous injection (gamma counter); conditions: mouse, in vivo, sc
Procedure: Additionally, 4 mice were sacrificed at each of these time points for determining the distribution in each organ using a gamma counter.
First, 1, 2, 3 were dissolved in HEPES buffer (100 mM in ultra-trace elemental water; Fisher Scientific, pH 6.7) to prepare a 2 mg/mL solution of each.
The obtained samples were incubated with 37 MBq of [^89Zr]Zr-oxalate (obtained from Mallinckrodt Institute of Radiology, Nuclear Pharmacy Cyclotron; dilution in 0.5 M HEPES, pH 6.7) for 1 hour in the wet ice under mild agitation. Purification was then performed using a Zeba spin column (0.5 mL, 7K MWCO) to remove the non-complexed [^89Zr]Zr-oxalate, for 5 min at 1,200 rcf. Instant-thin layer chromatography (iTLC) was performed to verify the success of the radiolabeling with elution in 0.1 M citrate buffer.

Dupilumab (hIgG4) = assay: Small bioconjugation handle installation to other IgGs (Q-ToF LC-MS); type: biochemical, human; conditions: 20 equivalents, room temperature
Procedure: Reactions were performed on a 10 μL scale using 0.2 mL PCR tubes (FIG. 64). First, the electrophile-attached Z33 peptide reagent was dissolved in water to prepare a 2 mg/mL solution. IgG (human WN1 (prepared as previously described (ChemBioChem, 19, 2039-2044 (2018)), denosumab (Invitrogen), dupilumab (Invitrogen), or mouse IgG1 (Invitrogen, subtype controlled)), electrophile-attached Z33 peptide reagent (2 mg/mL), HEPES buffer (pH 8.5), and NaCl solution were added to achieve final concentrations of 5 μM, 100 μM, 100 mM, and 200 mM. The contents were mixed using a 5 μL pipette and incubated at room temperature in the dark for 24 hours. The resulting reaction solution was quenched with a 100 mM Tris buffer and analyzed by LC-MS (FIGS. 53A to 53D, Table 10). Sample preparation for LC-MS analysis was performed in the same manner as previously described.
Reactions were performed on a 10 μL scale using 0.2 mL PCR tubes. First, the electrophile-attached Z33 peptide reagent was dissolved in water to prepare a 2 mg/mL solution. Denosumab (Invitrogen), dupilumab (Invitrogen), or mouse IgG1 (Invitrogen, subtype controlled)), electrophile-attached Z33 peptide reagent (2 mg/mL), HEPES buffer (pH 8.5), and NaCl solution were added to achieve final concentrations of 5 μM, 100 μM, 100 mM, and 200 mM. […] The resulting reaction solution was quenched with a 100 mM Tris buffer and analyzed by LC-MS. […]

mouse IgG = assay: Azido transfer to mouse IgG in mouse serum (E1/E2 sandwich ELISA); type: biochemical; conditions: after 2 h of incubation in mouse sera
Source text: Two sandwich ELISA assays have been developed in-house, one for the detection of the azido moiety conjugated mouse IgG (mIgG, E1), the other one for the detection of the whole mIgGs (modified and unmodified) in the sample (E2). Both E1 and E2 were run simultaneously on a same plate, using the same initial stock sample, and were processed in parallel at the same time for every steps. The same azido-free capture goat anti-mouse polyclonal antibody (Creative Diagnostics) was used for both E1-E2 assays at 1 μg/mL (100 μL per well) for incubation overnight at 4° C. Washing steps were performed thoroughly between each incubation by using 0.02% Tween 20-PBS. […] Absorbances were measured at 450 nm and 540 nm (A0=A450 nm-A540 nm) using a Spark microplate reader (Tecan, USA). The background noise (Ablank) from the serum was subtracted to get the final absorbance of the sample (Asample=A0-Ablank). The ratio Asample (E1)/Asample (E2) was calculated to estimate the percentage of azido transfer on the total amount of IgG in the sample.
Two sandwich ELISA assays have been developed in-house, one for the detection of the azido moiety conjugated mouse IgG (mIgG, E1), the other one for the detection of the whole mIgGs (modified and unmodified) in the sample (E2). […] Absorbances were measured at 450 nm and 540 nm (A0=A450nm−A540nm) using a Spark microplate reader (Tecan, USA). […]

Trastuzumab [2] = target: T1, Trastuzumab (Homo sapiens, UniProt P01857, D239E/L241M); assay: Determination of the modification sites (Trypsin/Lys-C digest, nLC-MS/MS); type: biochemical; conditions: Tmab, LC-MS/MS sequencing
T1 construct: purchased Syd Labs Inc; MedChemExpress LLC; Bio X Cell
Procedure: The modified trastuzumab (30 μg) from entry 6 of 5.2.1 was diluted to 36 μL using Tris buffer (50 mM, pH 8.0). PNGase F (New England BioLabs, 200 units) was added to the solution and incubated at 37° C. for 4 hours. The reaction solution was then brought to room temperature, and urea solution (6M in 50 mM Tris pH 8.0, 14 μL) and DTT solution (200 mM, 1.5 μL) were added and incubated at 37° C. for 1 hour. After that, iodoacetamide (800 mM, 1 μL) was added and incubated at room temperature for 30 minutes. The resulting solution was diluted 2-fold using Tris buffer (50 mM, pH 8.0), and then Trypsin/Lys-C mix (Promega, 0.2 μg/μL in solution, 6 μL) was added and incubated at 37° C. for 18 hours. The reaction solution was then purified by pipetting with Ziptip, lyophilized, and analyzed by nLC-MS/MS (using nLC-MS/MS method B). Obtained raw data were analyzed using Thermo Scientific FreeStyle™ 1.6. […]
The modified trastuzumab (30 μg) from entry 6 of 5.2.1 was diluted to 36 μL using Tris buffer (50 mM, pH 8.0). […] The reaction solution was then purified by pipetting with Ziptip, lyophilized, and analyzed by nLC-MS/MS (using nLC-MS/MS method B). Obtained raw data were analyzed using Thermo Scientific FreeStyle™ 1.6. […]

Trastuzumab [3] = target: T1, Trastuzumab; assay: Bioconjugation handle / GLP1 transfer to trastuzumab, analyzed by Q-ToF LC-MS; type: biochemical; conditions: 10 equivalents, 100 mM HEPES pH 8.5, room temperature, 24 h

T1 sequence (P01857 with tags, fused parts or gaps isoform P01857-1 D239E/L241M, other chains not shown): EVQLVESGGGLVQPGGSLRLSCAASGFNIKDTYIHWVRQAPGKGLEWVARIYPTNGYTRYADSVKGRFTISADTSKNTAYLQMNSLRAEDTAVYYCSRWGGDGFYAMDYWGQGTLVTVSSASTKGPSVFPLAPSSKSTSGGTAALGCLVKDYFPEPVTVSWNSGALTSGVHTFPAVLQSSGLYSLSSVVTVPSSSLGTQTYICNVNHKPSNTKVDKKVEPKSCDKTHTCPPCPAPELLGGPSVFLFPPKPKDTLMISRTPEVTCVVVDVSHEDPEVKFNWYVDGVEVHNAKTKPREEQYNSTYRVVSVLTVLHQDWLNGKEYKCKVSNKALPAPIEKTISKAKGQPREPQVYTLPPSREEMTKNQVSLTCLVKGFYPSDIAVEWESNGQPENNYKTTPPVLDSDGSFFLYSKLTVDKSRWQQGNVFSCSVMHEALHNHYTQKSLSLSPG

Site of modification (Trastuzumab [2]): Lys-317 | Light chain total conversion (Trastuzumab [3]): 5%
Sequence: FNMQQQRRFYEALHD PNLNHcyEQRNAKIKSI RDD [PEL-21]
Time detectable in the kidneys [1]: up to 240 hours | Light chain total conversion (Dupilumab (hIgG4); HEPES pH 8.5, first column so headed): 13% | Light chain total conversion (Dupilumab (hIgG4); HEPES pH 8.5, second column so headed): 96% | IgG conversion rate in mouse sera (mouse IgG): 33±1%
